# Measurements: the supplement of paper PMC7877785
# ± gives the uncertainty stated by the source.
# Experiment: self-splicing fitness, log relative to wild type (ln ratio); higher = more splicing; Tetrahymena group I intron in knt gene, E. coli kanamycin selection, DiMSum; sequences stand for … in CUCUCU…GGAGGGAAAAGUUAUCAGGCAUGCACCUGGUAGCUAGUCUUUAAACCAAUAGAUUGCAUCGGUUUAAAAGGCAAGACCGUCAAAUUGCGGGAAAGGGGUCAACAGCCGUUCAGUACCAAGUCUCAGGGGAAACUUUGAGAUGGCCUUGCAAAGGGUAUGGUAAUAAGCUGACGGACAUGGUCCUAACCACGCAGCCAAGUCCUAAGUCAACAGAUCUUCUGUUGAUAUGGAUGCAGUUCACAGACUAAAUGUCGGUCGGGGAAGAUGUAUUCUUCUCAUAAGAUAUAGUCGGACCUCUCCUUAAUGGGAGCUAGCGGAUGAAGUGAUGCAACACUGGAGCCGCUGGGAACUAAUUUGUAUGCGAAAGUAUAUUGAUUAGUUUUGGAGUACUCGUGGUCG
# In short: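 Library with all eight P1ex-region intron nucleotides randomised, intron inside the knt kanamycin-resistance gene on pET-22b(+), in E. coli BL21(DE3). Cells grew overnight at 37°C or 30°C on LB agar with or without 25 μg/mL kanamycin (plus 100 μg/mL carbenicillin, 50 μM IPTG, 0.2% rhamnose), in six replicate transformations. Pooled colonies were amplicon-sequenced on Illumina HiSeq 2500. DiMSum fitness is the error-weighted combination of wild-type-normalised replicate fold changes, kanamycin versus none.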
Sequence,self-splicing fitness (ln) (30 °C),self-splicing fitness (ln) (37 °C)
UCACAGCAAUAUUACGAGCC,-2.07 ± 0.22,-2.3 ± 0.5
ACAGAGCAAUAUUACGCUCC,,-1.45 ± 0.42
GGGGAGCAAUAUUACGACAU,-2.17 ± 0.022,-1.15 ± 0.037
UCCCAGCAAUAUUACGGGAG,-3.44 ± 0.14,-2.01 ± 0.11
UCAUAGCAAUAUUACGCAGC,-3.15 ± 0.35,-1.03 ± 0.23
CAUUAGCAAUAUUACGAUGU,-3.45 ± 0.25,-3.38 ± 0.23
UACUAGCAAUAUUACGCCCG,0.342 ± 0.24,-1.04 ± 0.2
ACAAAGCAAUAUUACGGAGU,-3.79 ± 0.15,-2.9 ± 0.17
ACCGAGCAAUAUUACGGUGU,-2.88 ± 0.13,-2.15 ± 0.12
UCGUAGCAAUAUUACGCGUU,-2.91 ± 0.26,-2.18 ± 0.26
UUACAGCAAUAUUACGCGCU,-2.93 ± 0.37,-2.04 ± 0.31
ACUUAGCAAUAUUACGUCCG,-2.09 ± 0.2,-0.774 ± 0.25
GAUCAGCAAUAUUACGCCAU,-3.36 ± 0.3,-1.33 ± 0.19
UCAGAGCAAUAUUACGUCAA,-3.81 ± 0.4,-2.13 ± 0.23
GAGUAGCAAUAUUACGCCAU,-2.49 ± 0.19,-2.33 ± 0.31
UAAUAGCAAUAUUACGGAAG,-3.02 ± 0.21,-0.76 ± 0.16
AGUCAGCAAUAUUACGUGUC,-2.18 ± 0.13,-2.11 ± 0.19
CGCUAGCAAUAUUACGCUAC,,-2.29 ± 0.5
UUGUAGCAAUAUUACGUCUC,-3.54 ± 0.17,-1.75 ± 0.18
AUAAAGCAAUAUUACGAUGC,-1.39 ± 0.08,-0.56 ± 0.12
CUUAAGCAAUAUUACGCAGG,-3.05 ± 0.21,-2.96 ± 0.32
GGUCAGCAAUAUUACGCUGC,-1.88 ± 0.25,-3.17 ± 0.47
AGUCAGCAAUAUUACGCGCC,-0.491 ± 0.1,-0.228 ± 0.11
AAAGAGCAAUAUUACGGUAC,-4.14 ± 0.24,-2.57 ± 0.2
CAUCAGCAAUAUUACGGACA,-0.235 ± 0.21,-1.16 ± 0.15

Sequence,self-splicing fitness (ln) (30 °C),self-splicing fitness (ln) (37 °C)
UUGUAGCAAUAUUACGGCAA,-0.208 ± 0.12,-0.27 ± 0.16
GUAGAGCAAUAUUACGUCCU,-1.1 ± 0.2,-0.4 ± 0.22
UUUGAGCAAUAUUACGCUUU,,-1.59 ± 0.22
UGGCAGCAAUAUUACGUACC,-0.627 ± 0.17,-0.885 ± 0.23
AGAAAGCAAUAUUACGUGAC,-2.53 ± 0.32,-1.65 ± 0.24
UCCAAGCAAUAUUACGAUGC,-2.69 ± 0.31,
GUGAAGCAAUAUUACGCUGU,-2.74 ± 0.13,-1.29 ± 0.12
CUAGAGCAAUAUUACGCCAG,-0.97 ± 0.1,-0.759 ± 0.21
UAUCAGCAAUAUUACGCGAC,-3.07 ± 0.37,-2.3 ± 0.33
GUAAAGCAAUAUUACGUCCC,-1.07 ± 0.19,0.449 ± 0.26
CGAUAGCAAUAUUACGCUGC,-3.15 ± 0.36,-2.21 ± 0.5
ACAAAGCAAUAUUACGAGAA,-2.54 ± 0.28,-2.87 ± 0.35
GGAGAGCAAUAUUACGGCUC,-1.76 ± 0.2,-2.82 ± 0.34
UUCAAGCAAUAUUACGAAGU,-3.76 ± 0.37,-0.849 ± 0.23
AAGCAGCAAUAUUACGUCAC,-4.94 ± 0.42,-2.25 ± 0.3
ACCCAGCAAUAUUACGGCUG,-3.68 ± 0.2,-2.06 ± 0.18
GAACAGCAAUAUUACGAGUC,-2.08 ± 0.09,-1.45 ± 0.094
CCUAAGCAAUAUUACGCUCA,-3.32 ± 0.27,-3.18 ± 0.4
CAUGAGCAAUAUUACGACGC,-3.01 ± 0.23,-1.99 ± 0.3
AUCCAGCAAUAUUACGGUCU,-0.68 ± 0.053,-0.109 ± 0.074
UCUCAGCAAUAUUACGAUCU,-1.68 ± 0.14,-2 ± 0.2
CCUGAGCAAUAUUACGGCAC,,-2.23 ± 0.26
CGACAGCAAUAUUACGAAGA,-2.29 ± 0.17,-2.09 ± 0.16
CAGGAGCAAUAUUACGCACA,-2.48 ± 0.24,-1.88 ± 0.23
UUAAAGCAAUAUUACGGGCG,0.077 ± 0.081,-0.11 ± 0.1

Sequence,self-splicing fitness (ln) (30 °C),self-splicing fitness (ln) (37 °C)
UUCGAGCAAUAUUACGCAGG,-2.48 ± 0.27,-1.82 ± 0.23
UAAAAGCAAUAUUACGAUCC,-2.13 ± 0.34,-2.05 ± 0.27
AGAAAGCAAUAUUACGGUAU,-2.66 ± 0.14,-0.578 ± 0.12
UACAAGCAAUAUUACGGCUC,-1.46 ± 0.088,-0.468 ± 0.11
GGGGAGCAAUAUUACGUUAA,-2.53 ± 0.4,-1.95 ± 0.35
UCAGAGCAAUAUUACGAAGU,-3.13 ± 0.33,
AUAUAGCAAUAUUACGAAAA,-2.4 ± 0.41,-1.72 ± 0.34
UGUGAGCAAUAUUACGAUUU,,-2.06 ± 0.27
CUAUAGCAAUAUUACGGUGC,-3.69 ± 0.28,-2.75 ± 0.29
UUGAAGCAAUAUUACGAUUG,-1.35 ± 0.088,0.272 ± 0.11
AAUAAGCAAUAUUACGUCUG,-1.59 ± 0.11,-0.973 ± 0.11
GGAAAGCAAUAUUACGAGGG,-3.74 ± 0.17,-2.54 ± 0.16
CUCGAGCAAUAUUACGGGCA,-2.35 ± 0.36,0.194 ± 0.26
CGGGAGCAAUAUUACGCAGU,,-1.82 ± 0.29
UAUCAGCAAUAUUACGGCUU,-1.03 ± 0.075,-0.106 ± 0.11
GGGCAGCAAUAUUACGCCUA,-0.197 ± 0.12,0.428 ± 0.14
AAAUAGCAAUAUUACGGACC,-1.57 ± 0.25,-1.26 ± 0.31
CUUCAGCAAUAUUACGGGUC,-3.39 ± 0.28,-0.947 ± 0.25
GAGAAGCAAUAUUACGUGAG,-1.32 ± 0.058,-1.57 ± 0.1
UCGCAGCAAUAUUACGCCAA,-1.37 ± 0.16,-1.23 ± 0.22
AUGCAGCAAUAUUACGAGGA,-3.57 ± 0.28,-2.9 ± 0.21
UAUCAGCAAUAUUACGUAUG,-0.321 ± 0.042,0.475 ± 0.058
GCAGAGCAAUAUUACGUUCG,-1.91 ± 0.14,-1.99 ± 0.3
UAUGAGCAAUAUUACGAUGU,-4.02 ± 0.37,-3.62 ± 0.46
CAAAAGCAAUAUUACGUUGU,-3.3 ± 0.11,-2.4 ± 0.14

Sequence,self-splicing fitness (ln) (30 °C),self-splicing fitness (ln) (37 °C)
AUUGAGCAAUAUUACGGGCU,-4.12 ± 0.36,-2.25 ± 0.42
AUAGAGCAAUAUUACGGACG,-2.69 ± 0.22,-0.981 ± 0.19
CGAUAGCAAUAUUACGCGCC,-2.04 ± 0.33,0.215 ± 0.24
ACUCAGCAAUAUUACGUUUU,-2.1 ± 0.048,-0.817 ± 0.061
GUGUAGCAAUAUUACGUCCG,-3.16 ± 0.33,-0.647 ± 0.22
GUGAAGCAAUAUUACGCUAG,-0.945 ± 0.14,0.0205 ± 0.23
AGUAAGCAAUAUUACGGGAC,-3.47 ± 0.26,-2.45 ± 0.26
GUACAGCAAUAUUACGGUGC,-3.12 ± 0.15,-2.22 ± 0.18
GGGAAGCAAUAUUACGGUAA,-3.01 ± 0.41,-0.554 ± 0.17
GCAUAGCAAUAUUACGAACU,-1.11 ± 0.084,-0.315 ± 0.11
UCUCAGCAAUAUUACGAGUC,-3.98 ± 0.18,-2.93 ± 0.18
CUGCAGCAAUAUUACGACGG,-2.75 ± 0.17,-0.0134 ± 0.14
CUUUAGCAAUAUUACGCUUA,-3.33 ± 0.37,-3.35 ± 0.4
CGUUAGCAAUAUUACGAACA,-0.595 ± 0.16,0.0081 ± 0.16
UGAAAGCAAUAUUACGAUAA,-0.879 ± 0.11,-0.129 ± 0.13
CUUGAGCAAUAUUACGACGC,-2.13 ± 0.39,-1.9 ± 0.46
UACAAGCAAUAUUACGCUUU,-3.73 ± 0.17,-2.29 ± 0.16
UGAGAGCAAUAUUACGUACG,-2.03 ± 0.13,-1.59 ± 0.22
UUGAAGCAAUAUUACGUUGA,-0.405 ± 0.093,-0.404 ± 0.11
UAAGAGCAAUAUUACGAUUA,-0.804 ± 0.1,0.2 ± 0.1
CGUUAGCAAUAUUACGUAUA,-2.85 ± 0.28,-2.49 ± 0.31
GCACAGCAAUAUUACGCACG,-2.06 ± 0.11,-0.889 ± 0.1
AAAUAGCAAUAUUACGAAGC,-3.18 ± 0.47,
